US20210179666A1, “CYCLIC PEPTIDES AND METHODS OF USE THEREOF” (Regents of the University of Minnesota, priority 2019, published 2021)

Target: human melanocortin 4 receptor (human) (UniProt P32245)
Assay: cell-based or functional assay

Sequence of human melanocortin 4 receptor (human) (P32245 whole entry): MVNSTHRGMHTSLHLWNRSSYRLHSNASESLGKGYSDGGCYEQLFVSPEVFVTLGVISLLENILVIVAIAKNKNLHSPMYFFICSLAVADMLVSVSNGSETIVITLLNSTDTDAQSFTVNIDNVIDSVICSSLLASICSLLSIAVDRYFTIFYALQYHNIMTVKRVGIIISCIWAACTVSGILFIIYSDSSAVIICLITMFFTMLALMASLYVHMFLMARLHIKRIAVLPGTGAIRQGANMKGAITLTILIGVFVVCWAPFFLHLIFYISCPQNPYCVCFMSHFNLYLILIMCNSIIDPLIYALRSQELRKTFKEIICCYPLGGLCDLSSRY

## AgRP (from UniProt O00253 87-132) (ligand)
  pA2 (Schild analysis, agonist NDP-MSH, cAMP): 8.7
